Reference: patent US20110027794

Legend:
[1] = system: unnamed basic selection target protein (pI 9, 9 kDa); assay: SELEX; details: 2'-F at all nucleotides; 0.89% bound with protein vs 0.48% without after 4 rounds; 20 mM Tris pH 7.4, 150 mM NaCl, 4 mM KCl, 1 mM MgCl2, 1 mM CaCl2, 0.1% Tween-20, 37 C
[2] = target: DNase I (UniProt P00639); assay: cleavage_in_vitro; details: 2'-F at all nucleotides; 100 mM NaOAc, 5 mM MgCl2, 37 C, 5 min
DNase I, sequence (P00639 23-282): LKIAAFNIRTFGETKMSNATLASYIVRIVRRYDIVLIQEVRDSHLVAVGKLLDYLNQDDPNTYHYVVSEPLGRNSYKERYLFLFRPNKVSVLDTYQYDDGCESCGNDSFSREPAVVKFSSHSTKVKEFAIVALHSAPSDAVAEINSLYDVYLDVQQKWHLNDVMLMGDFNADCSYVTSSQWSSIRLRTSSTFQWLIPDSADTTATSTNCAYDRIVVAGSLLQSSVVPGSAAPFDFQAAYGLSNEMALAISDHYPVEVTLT

Sequence | binding signal (fold over no-protein control) [1] | binding signal (fold more stable than DNA) [2]
GTGGAACCGACAGTGGTACGTGNNNNNNNNNNNNNNNNNNNNNNNNNNNNNNNNNNNNNNNNCACGAGTGAAGTCTGAGCTCC [BSA-1C FNA pool, selection round 4] | 1.85 | 
NNNNNNNNNNNNNNNNNNNNNNNNNNNNNNNNNNNNNNNNCACGAGTGAAGTCTGAGCTCC |  | > 100
